Patent US20230074134A1, “METHOD FOR PREPARING SOY LEGHEMOGLOBIN USING ESCHERICHIA COLI” (iNtRON Biotechnology, Inc., priority 2020, published 2023)

Test system: iron-deficiency-anemia-induced animals
Assay type: in vivo, Sprague-Dawley rats (female)
Description: The composition containing soy leghemoglobin prepared according to the present invention was administered to iron-deficiency-anemia-induced animals, whereby the effectiveness of the composition containing soy leghemoglobin on alleviating anemia was evaluated. Specifically, after 2 weeks acclimation period, thirty 9-week old Sprague-Dawley rats (female) were divided into 3 groups of 10 rats per group, among which one group was fed with normal feed in an amount of 10% of body weight daily for one month (Group 1; control), and the remaining two groups were fed with iron-deficient feed in an amount of 10% of body weight daily for 6 weeks to induce iron-deficiency anemia (Group 2 and Group 3). After 6 weeks of feeding, it was confirmed that iron-deficiency anemia was induced in the individual rat belonging to Group 2 and Group 3. Then, one of the anemia-induced groups was orally administered once a day with saline alone (Group 2), and the other anemia-induced group was orally administered once a day with solution containing soy leghemoglobin (0.1 mg Fe/500 μl solution, Group 3). The administration continued for 5 weeks. During 5 weeks of administration to Group 2 and Group 3, Group 1 was continuously fed with normal feed, and Group 2 and Group 3 were fed with iron-deficient feed. […] After 5 weeks of administration, blood was collected, and whether anemia was alleviated was evaluated.

[1] = iron-deficient feed, oral once a day, 0.1 mg Fe/500 μl solution, 5 weeks, blood collected after 5 weeks

B1: soy leghemoglobin (protein)
chain: MGAFTEKQEALVSSSFEAFKANIPQYSVVFYTSILEKAPAAKDLFSFLSNGVDPSNPKLTGHAEKLFGLVRDSAGQLKANGTVVADAALGSIHAQKAITDPQFVVVKEALLKTIKEAVGDKWSDELSSAWEVAYDELAAAIKKAF
modifications: heme cofactor; Soy leghmoglobin
Alleviation of iron-deficiency anemia (conclusion) (anemia-induced rats, 5 weeks oral administration): effective at alleviating iron-deficiency anemia | Weight of rats on 5 weeks after administration (iron-deficient feed, oral once a day, 0.1 mg Fe/500 μl solution, 5 weeks, anemia-induced female Sprague-Dawley rats): 369.3 ± 1.1 g | Blood test Hematocrit [1]: 31.8 ± 1.9% | Blood test Hemoglobin content [1]: 14.2 ± 0.4 g/dL
